Assays:
[1] = target: T1, recombinant canine OX40L ECD-TNCc-HIS protein (canine); experiment: SPR Koff (kd1)
T1 construct: also called Trimeric OX40L probe (HIS tag); trimeric canine OX40L
T1 chain: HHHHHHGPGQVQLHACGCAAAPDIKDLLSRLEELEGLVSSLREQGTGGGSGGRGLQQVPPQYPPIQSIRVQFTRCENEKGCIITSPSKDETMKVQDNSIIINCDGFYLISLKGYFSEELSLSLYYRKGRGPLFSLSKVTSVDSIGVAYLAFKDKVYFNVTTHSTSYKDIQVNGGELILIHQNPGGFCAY
Method: (§1) Affinity (Kd) of OX40L antibodies is measured by SPR, using a recombinant canine OX40L ECD-TNCc-HIS protein (Seq ID 811) as the capturing agent (FIG. 5B).
(§2) Functional affinity is determined using a Biakore 8K (Cytiva). in brief, purified OX40L ECD-TNCc-HIS protein is covalently bound at low density to the surface of a CM5 sensor chip (Cytiva) by amine coupling, using the manufacturer's recommended protocol. Candidate antibodies are subsequently passed across the chip surface at a range of concentrations and affinity determined using the dedicated software (Biacore Insight Evaluation Software). Curves were fitted using a bivalent analyte binding model.

[2] = target: T1, recombinant canine OX40L ECD-TNCc-HIS …; experiment: SPR Koff (kd2)
Method: as §1, §2

[3] = target: T2, canine OX40L, full length membrane form, expressed on HEK293 cells (canine); experiment: flow cytometry
T2 construct: also called OX40L expressing HEK; HEK OX40L cells
T2 chain: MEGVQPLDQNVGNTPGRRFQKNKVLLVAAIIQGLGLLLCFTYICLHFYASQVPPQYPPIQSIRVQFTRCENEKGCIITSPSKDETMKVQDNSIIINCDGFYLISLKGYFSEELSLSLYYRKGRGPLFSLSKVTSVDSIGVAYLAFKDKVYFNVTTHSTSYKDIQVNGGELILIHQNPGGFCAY
Procedure, shortened: (§3)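 CHO supernatants at 1, 5 or 10 μg/ml in PBS/3% FBS incubated 30′ on ice with cells surface-expressing canine OX40L. Bound antibody detected with fluorescent anti-canine Fc secondary (1:1000, 30 min, dark) and measured by flow cytometry, with parental WT HEK signal subtracted where stated.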

[4] = target: T2, canine OX40L, full length membrane …; experiment: cell-based or functional assay
[5] = target: T1, recombinant canine OX40L ECD-TNCc-HIS …; experiment: SPR KD1, bivalent analyte model
Method: as §1, §2

[6] = target: T2, canine OX40L, full length membrane …; experiment: flow cytometry, OX40L HEK minus WT HEK
Procedure, shortened: as §3

Binder | koff [1] | koff [2] | GEO mean OX40L expressing HEK [3] | % Signal Inhibition Average [4] | % Signal Inhibition Rep1 [4] | % Signal Inhibition Rep2 [4] | % Signal Inhibition Rep3 [4] | Kd [5] | GEO mean difference [6]
PMX036 (antibody, V domains shown, also called PMX36) VH: EVQLVESGGDLVKPGGSLRLSCVASGFTFSSYHMSWVRQAPGKGLQWVAYITSGGRTTSYADAVKGRFTISRDNAKNTLYLQMNSLRAEDTAVYYCASDLVLVLGGADYWGQGTLVTVSS VL: SYELTQPPSVNVTLRETAHITCGGDSIGRKYVQWIQQNPGQAPVVIIYKDTNRPTGIPERFSGANSGNTATLTISGALAEDEADYYCQVGDSGTKAVFGGGTHLTVL | 0.00166 s⁻¹ | 0.0522 s⁻¹ | 1.31e+06 | 77.4% | 87.6% | 79.1% | 65.5% | 21.6 nM | 1.28e+06
PMX034 (antibody, V domains shown, also called PMX34) VH: EVQLVESGGDLVKPGGSLRLSCVASGFTFSNYHMSWVRQAPGKGLQWVAYIVSGGSSTTYADAVKGRFTISRDNAKNTLYLQMTSLRAEDTAVYYCASDLVLLVGGADYWGQGTLVTVSS VL: SYELTQPPSVNVTLRETAHITCGGDSIGSKYVQWIQQNPGQAPVVIIYKDSNRPTGIPERFSGANSGNTATLTISGALAEDEADYYCQVGDSGTKAVFGGGTHLTVL | 0.135 s⁻¹ | 0.000252 s⁻¹ | 1.39e+06 | 64.2% | 76.4% | 64.7% | 51.6% | 7230 nM | 1.36e+06
PMX033 (antibody, V domains shown, also called PMX33) VH: EVQLVESGGDLVKPGGSLRLSCVASGFTFSSYHMSWVRQAPGKGLQWVAYITSGGRTTSYADAVKGRFTISRDNAKNTLYLQMKSLRAEDTAVYYCASDLVLVLGGAEYWGQGTLVTVSS VL: SYELTQPPSVNVTLRETAHITCGGDSIGRKYVQWIQQNPGQAPVVIIYKDSNRPTGIPERFSGANSGNTATLTISGALAEDEADYYCQVGDSGSKAVFGGGTHLTVL | 0.0103 s⁻¹ | 0.00101 s⁻¹ | 1.46e+06 | 60.3% | 55.8% | 69.8% | 55.4% | 36.4 nM | 1.43e+06
PMX032 (antibody, V domains shown, also called PMX32) VH: EVQLVESGGDLVKPGGSLRLSCVASGFTFSSYHMSWVRQAPGKGLQWVAYITSGGRTTSYADAVKGRFIISRDNAKNTLYLQMNSLRAEDTAVYYCASDLVLILGGADYWGQGTLVTVSS VL: SYELTQPPSVNVTLRETAHITCGGDSIGRKYVQWIQQNPGQAPVVIIYKDNNRPTGIPERFSGANSGNTATLTISGALAEDEADYYCQVGDSGSKAVFGGGTHLTVL | 0.00586 s⁻¹ | 1.71e-05 s⁻¹ | 1.45e+06 | 70% | 76.8% | 57.4% | 75.7% | 7.2 nM | 1.42e+06
PMX028 (antibody, V domains shown, also called PMX28) VH: EVQMVESGGDLVKPGGSLRLSCVASGFTFSDYHMSWVRQAPGKGLQWVAYITSGGSSTSYADAVKGRFTISRDNAKNTLYLQMNSLRAEDTAVYYCASDLVLVVGGGVYWGQGTLVTVSS VL: SYELTQPPSVNVTLRETAHITCGGDSIGSKYVQWIQQNPGQAPVVIIYKDSNRPTGIPERFSGANSGNTATLTISGALAEDEADYYCQVGDSGTKAVFGEGTQLTVL | 0.00935 s⁻¹ | 0.000627 s⁻¹ | 1.05e+06 | 66.4% | 61.7% | 75.4% | 62.1% | 17 nM | 1.02e+06
PMX055 (antibody, also called PMX55) heavy: EVQLEESGGDLVKPEGSLRLSCVVSGFTLSTFGMSWVRQAPGKGLQWVAYISSDGRSTSYTDAVKGRFTISRDNAKNTLYLQMNSLRTDDTAVYYCVQLGRGFGIDYWGHGTSLFVSSASTTAPSVFPLAPSCGSTSGSTVALACLVSGYFPEPVTVSWNSGSLTSGVHTFPSVLQSSGLYSLSSMVTVPSSRWPSETFTCNVAHPASKTKVDKPVPKRENGRVPRPPDCPKCPAPESLGGPSVFIFPPKPKDTLLIARTPEVTCVVVDLGREDPEVQISWFVDGKQMQTAKTQPREEQFNGTYRVVSVLPIGHQDWLKGKQFTCKVNHIGLPSPIERTISKARGQAHQPSVYVLPPSREELSKNTVSLTCLIKDFFPPDIDVEWQSNGQQEPESKYRTTPPQLDEDGSYFLYSKLSVDKSRWQRGDTFICAVMHEALHNHYTQKSLSHSPGK VL: SYVLTQLPSKNVTLRQPAHIPCGGDNIGSKSVHWYQQKLGQAPVLIIYYDTSRPTGIPERFSGANSGNTATLTISGALAEDEADYYCQVWDSSAAVFGGGTHLTVL | 0.00366 s⁻¹ | 0.401 s⁻¹ | 3.26e+06 | 52.8% | 48.3% | 57.7% | 52.3% | 5.43 nM | 3.23e+06
PMX057 (antibody, V domains shown, also called PMX57) VH: EVQLVESGGDLVKPEGSLRLSCVVSGFTFNNYGMSWVRQAPGKGLQWVAYISIDGRSTSYTDAVKGRFTISRDNAKNTLYLHINSLRTEDTAVYYCTKLGRGFTFGYWGQGTLVTVSS VL: SYVLTQLPSKNVTLKQPAHITCGGDNIGSKSVHWYQQKLGQAPALIIYYDSSRPTGIPERFSGANSGNTATLTISGALAEDEADYYCQVWDSSVSVFGGGTHLTVL | 0.00472 s⁻¹ | 0.22 s⁻¹ | 3.32e+06 | 66% | 52.1% | 72% | 73.9% | 1.29 nM | 3.29e+06
PMX059 (antibody, V domains shown, also called PMX59) VH: EVHLVESGGDLVKPEGSLRLSCVVSGFTFSNYVMNWVRQAPGKGLQWVAFISGDGRSTTYTDAVKSRFTISRDNAKNTLYLQMSSLRTEDTAIYFCAKEKYSSGWSFEYWGQGTLVTVSS VL: SYVLTQLPSKNVTLKQPAHITCGGDNIGSKSVHWYQQKLGQAPVLIIYYDSSRPTGIPERFSGANSGNTATLTISGALAEDEADYYCQVWDSSASVFGGGTHLTVL | 0.00737 s⁻¹ | 0.00737 s⁻¹ | 3.14e+06 | 57.8% | 51.1% | 64.3% | 58% | 10 nM | 3.11e+06
PMX056 (antibody, also called PMX56) heavy: EVQLVESGGDLVKPEGSLRLSCVVSGFTLSSYGMSWVRQAPGRGLQWVAYISSDGRSTSYTDAVKGRFTISRDNAKNTLYLQMNSLRSEDTAVYYCVQLGRGFGMDYWGHGTSLFVSSASTTAPSVFPLAPSCGSTSGSTVALACLVSGYFPEPVTVSWNSGSLTSGVHTFPSVLQSSGLYSLSSMVTVPSSRWPSETFTCNVAHPASKTKVDKPVPKRENGRVPRPPDCPKCPAPESLGGPSVFIFPPKPKDTLLIARTPEVTCVVVDLGREDPEVQISWFVDGKQMQTAKTQPREEQFNGTYRVVSVLPIGHQDWLKGKQFTCKVNHIGLPSPIERTISKARGQAHQPSVYVLPPSREELSKNTVSLTCLIKDFFPPDIDVEWQSNGQQEPESKYRTTPPQLDEDGSYFLYSKLSVDKSRWQRGDTFICAVMHEALHNHYTQKSLSHSPGK VL: SYVLTQLPSKNVTLKQPAHITCGGDNIGSKSVHWYQQKLGQAPVVIIYYDSTRPTGIPERFSGANSGNTATLTISGALAEDEADYYCQVWDSSAAVFGGGTHLTVL | 0.0148 s⁻¹ | 0.000624 s⁻¹ | 3.16e+06 | 44.3% | 27.3% | 57% | 48.5% | 61 nM | 3.13e+06
PMX058 (antibody, V domains shown, also called PMX58) VH: EVQLVESGGDLVKPEGSLRLSCVVSDFTFGSYGMSWVRQAPGKGLQWVAYISSDGRSTSYTDAVKGRFTISRDNAKNTLHLQMNSLRTEDTAVYYCAKLGRGFAFGYWGQGTLVTVSS VL: SYVLTQLPSKNVTLKQPAHITCGGDNIGSKSVHWYQQKLGQAPVLIIYYDSNRPTGIPERFSGANSGNTATLTISGALAEDEADYYCQVWDSSASVFGGGTHLTVL | 0.0144 s⁻¹ | 0.323 s⁻¹ | 3.34e+06 | 29.1% | 12.4% | 35.3% | 39.5% | 8.46 nM | 3.31e+06
